Test results reported in patent publication US20220363763A1 (ABL BIO, published 2022).
Where a chain is given by its changes, count along the chain named.

Key:
[1] = biological target: T1, human LAG3 (construct not stated) (human, UniProt P18627 23-450, limits assumed); test: BLI Octet Red 96, affinity ranking
T1 construct: also called human LAG3 protein; antigen
T1 sequence (looked up): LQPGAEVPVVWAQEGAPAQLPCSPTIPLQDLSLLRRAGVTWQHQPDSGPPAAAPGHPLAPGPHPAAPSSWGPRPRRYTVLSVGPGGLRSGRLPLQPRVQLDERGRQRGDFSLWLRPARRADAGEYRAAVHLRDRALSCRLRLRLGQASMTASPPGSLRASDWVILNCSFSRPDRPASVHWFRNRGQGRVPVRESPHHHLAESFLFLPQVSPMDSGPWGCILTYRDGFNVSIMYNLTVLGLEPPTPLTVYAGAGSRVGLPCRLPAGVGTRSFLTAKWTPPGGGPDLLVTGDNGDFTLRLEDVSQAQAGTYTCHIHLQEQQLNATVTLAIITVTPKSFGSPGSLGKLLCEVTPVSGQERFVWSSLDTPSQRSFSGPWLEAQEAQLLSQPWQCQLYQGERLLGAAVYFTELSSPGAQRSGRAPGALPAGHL

human LAG3 on cells [2] = biological target: T2, human LAG3 on cells (human, UniProt P18627 23-525); test: flow cytometry on activated CD4 T cells
T2 construct: whole, on cells; also called Jurkat-LAG3
T2 sequence (looked up): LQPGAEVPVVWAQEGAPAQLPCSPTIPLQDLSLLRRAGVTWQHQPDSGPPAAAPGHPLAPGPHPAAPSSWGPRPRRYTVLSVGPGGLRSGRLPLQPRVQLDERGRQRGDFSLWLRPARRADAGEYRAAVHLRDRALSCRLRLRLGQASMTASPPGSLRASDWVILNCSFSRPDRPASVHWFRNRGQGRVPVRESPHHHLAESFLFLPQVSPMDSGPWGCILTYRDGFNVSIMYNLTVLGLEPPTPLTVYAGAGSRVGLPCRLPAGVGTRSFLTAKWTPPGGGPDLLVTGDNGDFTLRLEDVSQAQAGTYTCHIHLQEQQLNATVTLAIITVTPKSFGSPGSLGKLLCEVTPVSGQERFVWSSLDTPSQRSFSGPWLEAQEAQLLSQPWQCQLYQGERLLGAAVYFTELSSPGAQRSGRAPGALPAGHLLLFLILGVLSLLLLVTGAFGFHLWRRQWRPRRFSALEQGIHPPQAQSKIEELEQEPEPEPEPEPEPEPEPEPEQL
Experimental: (§1) To further confirm affinity matured anti-LAG-3 antibodies could bind to cell-derived human LAG3, both inducible hLAG3 expressed Jurkat cells and activated PBMCs were used to test the binding capability of B3807b and B3810. In brief, Jurkat cells were resuspended in FACS buffer. Anti-LAG3 antibodies and isotype control were 4-fold serially diluted in FACS buffer with a dose ranging from 20 nM to 30 pM. The serially diluted antibodies were added to the cell suspension and incubated for 30 minutes on ice. Then after removal of unbound antibodies, cells were stained with anti-human IgG conjugated with Alexa Fluor 633 (Thermo, A21091). Fluorescence measurement was acquired on FACSCelesta flow cytometer and analyzed in Flowjo to determine the mean fluorescence intensities (MFI). To test anti-LAG3 antibodies' ability of binding to native human LAG3, PBMCs from health donor were stimulated with anti-CD3 (BD, 555336) and anti-CD28 (BD, 555725) both at a concentration of 1 ug/ml. Following 3 days' stimulation, cells were harvested and incubated with anti-LAG3 antibodies for 30 mins on ice. The cells were stained with anti-human CD4 and anti-human IgG. Analysis of antibodies binding to CD4+ cells were carried out on FACSCelesta flow cytometry. […] FIG. 31 is a graph showing the binding curve of anti-LAG3 antibodies.

[3] = biological target: T3, recombinant human LAG-3-ECD-human IgG1 fusion protein (human, UniProt P18627 23-450, biotin-labeled in the MHC class II blocking assays); test: ELISA as Example 2.2, coated human LAG3 ECD-Fc
T3 construct: extracellular domain; also called LAG-3-huFc; LAG-3-ECD-huFc; not shown: human IgG1 Fc
T3 sequence (looked up): T1 sequence (looked up)
Experimental: To evaluate the capability of the anti-LAG-3 antibodies to bind to human, rat, and mouse LAG3 the antibodies identified in Example 2.1 were evaluated for their binding property through ELISA. The human, rat and mouse LAG3 ECD-Fc protein were coated to ELISA plate at 1 μg/ml with 100 μl/well. Antibodies from Example 1 were serially diluted with ELISA diluent buffer. […] The resulting plates were washed and then labeled with anti-human IgG(Fab)-HRP antibody. The S31 can only bind to human LAG3. The S27 and T99 can bind to human LAG3 and rat/mouse LAG3 with lower potency. The S119 antibody can bind to human, rat and mouse LAG3 at high potency (FIGS. 22A-22D).

[4] = biological target: T4, recombinant his-tag human LAG3-ECD protein (human, UniProt P18627 23-450); test: SPR Biacore T200, capture method as Example 2.7
T4 construct: extracellular domain; not shown: his tag
T4 sequence (looked up): T1 sequence (looked up)

human LAG3 on cells [5] = biological target: T2, human LAG3 on cells; test: flow cytometry on hLAG3-expressing Jurkat cells
Experimental: as §1

[6] = biological target: T1, human LAG3 (construct not stated); test: BLI Octet Red 96, full kinetics, antigen 50-3.125 nM
Experimental: The binding affinity was calculated by software in Octet® RED96 System.

human LAG3 on cells [7] = biological target: T2, human LAG3 on cells; test: flow cytometry (MFI) on Jurkat-LAG3 cells, upper panel; EC50 table has no unit, x axis Concentration (nM); Table 31 of the text prints the rounded 1.2
Experimental: as §1

human LAG3 on cells [8] = biological target: T2, human LAG3 on cells; test: flow cytometry (MFI) on activated CD4 T cells, lower panel; EC50 table has no unit, x axis Concentration (nM); Table 31 of the text prints the rounded 0.77
Experimental: as §1

Bio-LAG3 = biological target: T5, Bio-LAG3 (human, UniProt P18627 23-450, limits assumed, biotinylated (sites not given)); test: ELISA, Bio-LAG3 held on streptavidin-coated plate
T5 construct: also called human LAG3 protein
T5 sequence (looked up): T1 sequence (looked up)
Experimental: The streptavidin was coated to an ELISA plate at 2 μg/ml with 100 μl/well. 100 μl of Bio-LAG3 at 1.0 μg/ml was subsequently incubated with streptavidin at RT for 1 hr. B3807, along with a positive control 25F7 and a negative control IgG, were serially diluted with ELISA diluent buffer. To assess binding, the antibodies at various concentrations were added to LAG3 protein-coated plate for 1.5 hr RT. The resulting plates were washed and then labeled with anti-human IgG(Fab)-HRP antibody.

[9] = biological target: T1, human LAG3 (construct not stated); test: TR-FRET LAG3 / MHC II binding assay (Cisbio), competitor MHC II
Experimental: To measure the ability of B3807 to block the interaction between human LAG3 and MHCII, the LAG3 and MHC II binding assay (Cisbio, 64ICP03PEG) was performed utilizing homogeneous TR-FRET technology, following the protocol provided by the kit manufacturer. B3807 was 3-fold diluted ranging from 100 nM to 5 pM (10 points). Fluorescence data was acquired on a PerkinElmer Envision plate reader and a four-parameter dose-response curve was fitted to obtain IC50 of each antibody.

human LAG3 on cells [10] = biological target: T2, human LAG3 on cells; test: flow cytometry (MFI) on activated human PBMC (CD4+ cells), lower panel
Experimental: (§2) To further confirm that B3807 could bind to cell-derived human LAG3, both inducible human LAG3 expressed Jurkat cells and activated PBMCs were used to test the binding capability of B3807. In brief, Jurkat cells were resuspended in FACS buffer. B3807, 25F7 and isotype control were 3-fold serially diluted in FACS buffer with a dose ranging from 20 nM to 9 pM. The serially diluted antibodies were added to the cell suspension and incubated for 30 minutes on ice. Then after removal of unbound antibodies, cells were stained with anti-human IgG conjugated with Alexa Fluor 633 (Thermo, A21091). Fluorescence measurement was acquired on FACSCelesta flow cytometer and analyzed in Flowjo to determine the mean fluorescence intensities (MFI). To test the antibodies' ability of binding to native human LAG3, PBMCs from health donor were stimulated with anti-CD3 (BD, 555336) and anti-CD28 (BD, 555725) both at a concentration of 1 μg/ml. Following 3 days' stimulation, cells were harvested and incubated with anti-LAG3 antibodies for 30 mins on ice. The cells were stained with anti-human CD4 and anti-human IgG. Analysis of antibodies binding to CD4+ cells were carried out on FACSCelesta flow cytometry.

human LAG3 on cells [11] = biological target: T2, human LAG3 on cells; test: flow cytometry (MFI) on human LAG3-expressing Jurkat cells, upper panel
Experimental: as §2

[12] = biological target: T4, recombinant his-tag human LAG3-ECD …; test: Biacore, antibody captured, His-tag human LAG3-ECD injected (procedure of Example 2.16(B))
Experimental: (§3) The binding of B3807 to recombinant His-tag human LAG3-ECD protein was examined by Biacore T200 using a capture method. B3807 was captured using protein A which was immobilized on CM5 sensor chip. Serial concentrations of his-tag human LAG3-ECD protein (0-12 nM) were injected over capture antibodies at the flow rate of 30 μl/min. The dissociation phase was 900 s or 550 s.
(§4) B3807 was used in the following examples for further testing and preparing bispecific antibodies.

biotin-labeled LAG3-ECD = biological target: T6, biotin-labeled LAG3-ECD (Homo sapiens (Human), UniProt P18627 23-450, biotin label, site not stated); test: ELISA on coated recombinant FGL-1; blocking of the binding of biotin-labeled LAG3-ECD to FGL-1
T6 construct: also called soluble LAG-3; LAG3 protein
T6 sequence: T1 sequence (looked up)
Experimental: Recombinant FGL-1 were coated on a 96 well plated at a concentration of 1 μg/ml and incubated overnight at 4° C. Serially diluted anti-LAG3 antibody B3807 (starting from 10 μg/ml and 1:3 dilution) and biotin-labeled LAG3-ECD (2 μg/ml) were incubated with FGL-1 coated wells at room temperature for 2 hours. After extensive washing with the wash buffer, streptavidin-HRP was added.

[13] = biological target: T4, recombinant his-tag human LAG3-ECD …; test: Biacore T200, B3807 captured on protein A, His-tag human LAG3-ECD injected; column 'KD', unit inferred
Experimental: as §3

[14] = biological target: T4, recombinant his-tag human LAG3-ECD …; test: Biacore, antibody captured, His-tag human LAG3-ECD injected (procedure of Example 2.16(B)); column kd(1/s)
Experimental: as §3, §4

[15] = biological target: T4, recombinant his-tag human LAG3-ECD …; test: Biacore, antibody captured, His-tag human LAG3-ECD injected (procedure of Example 2.16(B)); column ka (1/Ms)
Experimental: as §3, §4

[16] = biological target: T7, human LAG3-His protein (Sinobio, 16498-H08H) (human, UniProt P18627 23-450); test: ELISA on coated LAG3-His
T7 construct: also called human LAG3 protein; not shown: His tag
T7 sequence (looked up): T1 sequence (looked up)
Description: To evaluate the binding activity to PD-L1 and LAG3 of the bispecific antibodies (BsAb; H12x147 and 147xH12) prepared in Example 3, the BsAb were subjected to ELISA test.

human PD-L1-Fc protein = biological target: T8, human PD-L1-Fc protein (human, UniProt Q9NZQ7 19-239); test: ELISA on coated PD-L1-Fc
T8 construct: Coated on ELISA plates; also called huPD-L1; not shown: Fc part
T8 sequence (Q9NZQ7 19-239 limits assumed): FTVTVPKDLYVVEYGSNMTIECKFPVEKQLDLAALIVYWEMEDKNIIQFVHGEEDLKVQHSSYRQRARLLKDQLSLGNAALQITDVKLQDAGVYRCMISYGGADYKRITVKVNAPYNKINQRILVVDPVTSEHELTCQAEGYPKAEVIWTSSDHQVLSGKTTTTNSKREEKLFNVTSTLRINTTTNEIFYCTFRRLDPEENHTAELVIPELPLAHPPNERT

B1: 147H-13 (antibody, V domains shown)
VH: EVQLVQSGAEVKKPGASVKVSCKASGYTFTNYWLGWIKQAPGQGLEWIGDIYPGGDYINYNEKFKGKATLTADTSISTAYMELSRLRSDDTAVYYCARPNLPGDYWGQGTTVTVSS
VL: DIVMTQSPLSLPVTPGEPASISCRSSKSLLHSNGITYLYWYLQKPGQSPQLLIYQVSNLASGVPDRFSGSGSGTDFTLKISRVEAEDVGVYYCAQNLELPWTFGGGTKVEIK
notes: Common light chain; human gamma 1 / kappa constant domains; also called 147H4-13
[1]
  Kd: 21.6 nM
  koff: 0.00234 s⁻¹
  kon: 108000 M⁻¹ s⁻¹
Human LAG3 on cells [2]
  EC50: 0.77 nM
[3]
  EC50: 6.5 nM
[4]
  Kd: 14 nM
  koff: 0.03 s⁻¹
  kon: 2.2e+06 M⁻¹ s⁻¹
Human LAG3 on cells [5]
  EC50: 1.2 nM
[6]
  Kd: 18.2 nM
  koff: 0.0019 s⁻¹
  kon: 104000 M⁻¹ s⁻¹
Human LAG3 on cells [7]
  EC50: 1.23 nM
Human LAG3 on cells [8]
  EC50: 0.767 nM

B2: 147H 3807 (antibody, V domains shown)
VH: B1 VH with N59V, G103K, Y105H
VL: B1 VL with N33Q, N96Y
notes: also called B3807
Bio-LAG3
  EC50: 0.06 nM
[9]
  IC50: 0.41 nM
Human LAG3 on cells [10]
  EC50: 0.32 nM
Human LAG3 on cells [11]
  EC50: 0.06 nM
[12]
  Kd: 0.915 nM
biotin-labeled LAG3-ECD
  IC50 (read off the curve): ~0.2 µg/mL
[13]
  Kd: 0.464 nM
[14]
  koff: 0.00517 s⁻¹
[15]
  kon: 5.66e+06 M⁻¹ s⁻¹

B3: H12x147 (bispecific antibody, human IgG1, kappa, N297A)
heavy: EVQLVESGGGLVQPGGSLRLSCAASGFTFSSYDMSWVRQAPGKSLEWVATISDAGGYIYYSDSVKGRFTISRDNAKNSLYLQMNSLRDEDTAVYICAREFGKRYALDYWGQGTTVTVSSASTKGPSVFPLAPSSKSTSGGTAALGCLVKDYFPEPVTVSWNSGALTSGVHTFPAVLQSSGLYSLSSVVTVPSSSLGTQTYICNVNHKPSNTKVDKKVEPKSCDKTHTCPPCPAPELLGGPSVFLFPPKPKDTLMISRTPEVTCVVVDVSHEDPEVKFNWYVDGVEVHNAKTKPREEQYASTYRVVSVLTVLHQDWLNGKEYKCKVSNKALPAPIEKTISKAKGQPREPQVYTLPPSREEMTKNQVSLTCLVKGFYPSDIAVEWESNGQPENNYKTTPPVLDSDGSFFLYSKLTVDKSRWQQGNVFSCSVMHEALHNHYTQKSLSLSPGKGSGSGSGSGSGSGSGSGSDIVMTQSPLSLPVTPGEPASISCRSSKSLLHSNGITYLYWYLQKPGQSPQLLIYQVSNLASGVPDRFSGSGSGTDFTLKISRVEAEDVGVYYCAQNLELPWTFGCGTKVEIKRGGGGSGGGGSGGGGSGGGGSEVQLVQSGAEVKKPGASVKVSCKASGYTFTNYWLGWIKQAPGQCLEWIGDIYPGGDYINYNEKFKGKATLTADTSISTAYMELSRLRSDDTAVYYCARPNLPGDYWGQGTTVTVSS
light: DIQMTQSPSSLSASVGDRVTITCKASQDVTPAVAWYQQKPGKAPKLLIYSTSSRYTGVPSRFSGSGSGTDFTFTISSLQPEDIATYYCQQHYTTPLTFGQGTKLEIKRTVAAPSVFIFPPSDEQLKSGTASVVCLLNNFYPREAKVQWKVDNALQSGNSQESVTEQDSKDSTYSLSSTLTLSKADYEKHKVYACEVTHQGLSSPVTKSFNRGEC
notes: also called L1A3
[16]
  binding result: binds
Human PD-L1-Fc protein
  binding result: binds
